The values that follow come from article PMC12582974, “Characterization of WAC interactions with R2TP and TTT chaperone complexes linking glucose and glutamine availability to mTORC1 activity” (FEBS Open Bio, 2025).

For assay [1], the target named is mTOR-mLST8 complex (10xHis-TEV-mTOR with untagged mLST8) (human, UniProt P42345 1-2549; Q9BVC4 1-326). The assay is described as follows: pull-down; WAC-3xFlag from Expi293 lysate purified and held on anti-Flag resin (washes incl. 5 mM ATP/5 mM MgCl2); purified prey added 20 min at 4 °C in 150 mM Tris pH 8, 300 mM KCl, 10% glycerol, 0.5 mM TCEP; elution with 3xFlag peptide; SDS/PAGE and western blot. The conditions noted are these: both partners purified.

The next assay has as its target T1, RUVBL1-RUVBL2 complex (human, UniProt Q9Y265 1-456; Q9Y230 1-463).
T1 construct: RUVBL1 (RuvB-like 1), human, N-terminal His-tag and TEV site; RUVBL2 (RuvB-like 2), human, untagged; also called RUVBL1‐RUVBL2 module; RUVBL1‐RUVBL2 ATPase module; source: E. coli BL21 (DE3), co-expressed, purified (HisTrap HP; an untagged form by TEV digestion and a second HisTrap step)
Described as above. The conditions noted are these: both partners purified.

T1 sequence (Q9Y265 whole entry, chain 1 of 2): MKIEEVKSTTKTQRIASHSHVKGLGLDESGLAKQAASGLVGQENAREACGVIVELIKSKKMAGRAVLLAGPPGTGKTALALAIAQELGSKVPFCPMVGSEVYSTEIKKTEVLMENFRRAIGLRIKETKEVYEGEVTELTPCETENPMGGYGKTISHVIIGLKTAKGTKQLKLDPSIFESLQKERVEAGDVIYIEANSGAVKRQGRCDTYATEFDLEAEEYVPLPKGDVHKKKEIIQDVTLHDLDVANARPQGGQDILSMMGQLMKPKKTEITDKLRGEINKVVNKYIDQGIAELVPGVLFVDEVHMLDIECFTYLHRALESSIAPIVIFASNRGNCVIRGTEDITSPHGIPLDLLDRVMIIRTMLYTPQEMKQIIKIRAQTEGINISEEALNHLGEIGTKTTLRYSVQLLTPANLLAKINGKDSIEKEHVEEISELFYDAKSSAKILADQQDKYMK
T1 sequence (Q9Y230 whole entry, chain 2 of 2): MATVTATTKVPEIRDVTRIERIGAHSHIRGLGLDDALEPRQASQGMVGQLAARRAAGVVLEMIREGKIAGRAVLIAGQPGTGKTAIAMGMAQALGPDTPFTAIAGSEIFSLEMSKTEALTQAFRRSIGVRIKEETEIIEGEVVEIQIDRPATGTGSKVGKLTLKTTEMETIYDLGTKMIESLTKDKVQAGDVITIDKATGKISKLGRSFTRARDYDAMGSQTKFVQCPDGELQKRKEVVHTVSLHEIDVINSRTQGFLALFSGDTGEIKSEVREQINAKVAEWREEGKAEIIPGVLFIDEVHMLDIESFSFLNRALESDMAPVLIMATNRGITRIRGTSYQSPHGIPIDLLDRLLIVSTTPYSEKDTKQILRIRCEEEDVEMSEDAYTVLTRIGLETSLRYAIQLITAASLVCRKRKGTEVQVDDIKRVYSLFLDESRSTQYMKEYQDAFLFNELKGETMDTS

B1: WAC-3xFlag (human WAC with C-terminal 3xFlag tag, pACEMam-WAC-3C-3xFlag) (natural protein, UniProt Q9BTA9-1 1-647, looked up)
chain: MVMYARKQQRLSDGCHDRRGDSQPYQALKYSSKSHPSSGDHRHEKMRDAGDPSPPNKMLRRSDSPENKYSDSTGHSKAKNVHTHRVRERDGGTSYSPQENSHNHSALHSSNSHSSNPSNNPSKTSDAPYDSADDWSEHISSSGKKYYYNCRTEVSQWEKPKEWLEREQRQKEANKMAVNSFPKDRDYRREVMQATATSGFASGMEDKHSSDASSLLPQNILSQTSRHNDRDYRLPRAETHSSSTPVQHPIKPVVHPTATPSTVPSSPFTLQSDHQPKKSFDANGASTLSKLPTPTSSVPAQKTERKESTSGDKPVSHSCTTPSTSSASGLNPTSAPPTSASAVPVSPVPQSPIPPLLQDPNLLRQLLPALQATLQLNNSNVDISKINEVLTAAVTQASLQSIIHKFLTAGPSAFNITSLISQAAQLSTQAQPSNQSPMSLTSDASSPRSYVSPRISTPQTNTVPIKPLISTPPVSSQPKVSTPVVKQGPVSQSATQQPVTADKQQGHEPVSPRSLQRSSSQRSPSPGPNHTSNSSNASNATVVPQNSSARSTCSLTPALAAHFSENLIKHVQGWPADHAEKQASRLREEAHNMGTIHMSEICTELKNLRSLVRVCEIQATLREQRILFLRQQIKELEKLKNQNSFMV
notes: WAC (WW domain-containing adaptor with coiled-coil), human, cDNA NM_016628.5 from GenScript (clone OHu28471); An HRV 3C protease site stands between WAC and the 3xFlag tag; also called WW domain-containing adaptor with coiled-coil; WAC lysate; source: Expi293 cells, overexpressed; purified on anti-Flag resin and kept on the beads; not shown: 3xFlag, C-terminal, kept
Consider B1, for which the binding result (in assay [1]; in the assay with RUVBL1-RUVBL2 complex) was “binds” in each case.
